# Test results taken from article PMC6884004.
# B1: MCAK::GFP (His6-MCAK::EGFP-StrepII) (enzyme)
# chain: MAMDSSLQARLFPGLAIKIQRSNGLIHSANVRTVNLEKSCVSVEWAEGGATKGKEIDFDDVAAINPELLQLLPLHPKDNLPLQENVTIQKQKRRSVNSKIPAPKESLRSRSTRMSTVSELRITAQENDMEVELPAAANSRKQFSVPPAPTRPSCPAVAEIPLRMVSEEMEEQVHSIRGSSSANPVNSVRRKSCLVKEVEKMKNKREEKKAQNSEMRMKRAQEYDSSFPNWEFARMIKEFRATLECHPLTMTDPIEEHRICVCVRKRPLNKQELAKKEIDVISIPSKCLLLVHEPKLKVDLTKYLENQAFCFDFAFDETASNEVVYRFTARPLVQTIFEGGKATCFAYGQTGSGKTHTMGGDLSGKAQNASKGIYAMASRDVFLLKNQPCYRKLGLEVYVTFFEIYNGKLFDLLNKKAKLRVLEDGKQQVQVVGLQEHLVNSADDVIKMIDMGSACRTSGQTFANSNSSRSHACFQIILRAKGRMHGKFSLVDLAGNERGADTSSADRQTRMEGAEINKSLLALKECIRALGQNKAHTPFRESKLTQVLRDSFIGENSRTCMIATISPGISSCEYTLNTLRYADRVKELSPHSGPSGEQLIQMETEEMEACSNGALIPGNLSKEEEELSSQMSSFNEAMTQIRELEEKAMEELKEIIQQGPDWLELSEMTEQPDYDLETFVNKAESALAQQAKHFSALRDVIKALRLAMQLEEQASRQISSKKRPQ
# B2: synthetic MTED peptide (MT elimination domain of Drosophila Efa6) (peptide)
# peptide: APRFEAYMMTGDLILNLSRT
# Legend:
# [1] = molecular target: Full length human MCAK (mitotic centromere-associated kinesin) (human) (UniProt Q99661); assay: pull-down; full length human MCAK coupled (1 µg/µl beads) to cyanogen bromide-activated Sepharose beads via lysines or the N-terminal amine; beads pre-incubated with 5 mM AMPPNP or ADP for 30 min at 20°C; 15 μM porcine brain tubulin, 30 min, 20°C; nucleotide kept in the washing buffer; SDS-PAGE band intensity compared with uncoated beads
# [2] = molecular target: synthetic MTED peptide (MT elimination domain of Drosophila Efa6) (Drosophila melanogaster); assay: pull-down; MTED or scrambled peptide coupled via the N-terminal amine to cyanogen bromide-activated Sepharose beads (5 ng peptide/μl beads); 15 μM porcine brain tubulin (un-polymerised GDP-tubulin); BRB80 with 0.2% Tween 20, 30 min, 20°C; five washes; SDS-PAGE band intensity compared with uncoated beads
# [3] = molecular target: GMPCPP-stabilised, rhodamine-labeled microtubules grown from porcine brain tubulin (porcine) (UniProt P02550); assay: TIRF microscopy of GFP-tagged protein on surface-adhered microtubules; GMPCPP-stabilised rhodamine-labeled MTs adhered to flow chambers; 20 nM Efa6-ΔCterm::GFP in BRB20 pH 6.9, 75 mM KCl, 0.05% Tween20, 0.1 mg/ml BSA, or 20 nM MCAK::GFP in the same buffer plus 1 mM ATP and 1 mM taxol; mean GFP intensity on individual MTs
# [4] = molecular target: porcine brain tubulin (un-polymerised GDP-tubulin) (porcine) (UniProt P02550)
molecule,measurement,setting,value
porcine brain tubulin (un-polymerised GDP-tubulin) (from UniProt P02550 1-451; P02554 1-445) (complex),fold tubulin pulled down against uncoated beads (with AMPPNP or ADP),[1],1.5 fold
same,fold tubulin pulled down against beads coated with scrambled peptide,[2],5 fold
same,fold tubulin pulled down against uncoated beads,[2],3 fold
B1,fold of molecules on MTs against Efa6-ΔCterm::GFP at the same concentration,[3],> 2 fold
B2,"fold decrease in amount of MT polymer in the MT growth assay (30 μM tubulin with 30 μM MTED peptide, against no peptide)",[4],10 fold
